The values below come from patent US20210275695A1 (CASE WESTERN RESERVE UNIVERSITY, published 2021).

Assay [1] concerns the target T1, EDB fragment (extradomain B of fibronectin), expressed in E. coli with an N-terminal 10xHis tag (UniProt P02751 1266-1356).
T1 construct: domain: EDB; also called EDB protein; purified EDB; not shown: N-terminal 10xHis tag from the pQE-T7-1 vector
The experiment in a line: SPR (Biacore T100), EDB protein immobilised on a CM5 chip, Scatchard plot. As to the method:
The ZD2 peptide sequence, TVRTSAD (SEQ ID NO: 1), was synthesized in solid phase using Fmoc chemistry. A short spacer, Fmoc-9-amino-4,7-dioxanonanoic acid (Fmoc-NH-PEG₂-CH₂CH₂COOH), and 5-hexynoic acid, were also sequentially conjugated in solid phase followed by trifluoroacetic acid (TFA) treatment, which yielded ZD2-PEG-propargyl. Azido-Gd(HP-DO3A) was synthesized as reported previously. Click chemistry reaction between ZD2-PEG-propargyl (1 Eq) and azido-Gd(HP-DO3A) (1.1 Eq) was performed in a 2:1 mixture of t-butanol and water under nitrogen following addition of [Cu(MeCN)₄]PF₆ (0.02 Eq) and TBTA (Tris[(1-benzyl-1H-1,2,3-triazol-4-yl)methyl]amine, 0.02 Eq). The final product, named ZD2-Gd(HP-DO3A), was purified by high performance liquid chromatography (HPLC) on an Agilent 1100 HPLC system equipped with a semi-preparative C18 column. […] The Gd(III) content was measured by inductively coupled plasma optical emission spectroscopy (ICP-OES Optima 3100XL, Perkin-Elmer, Norwalk, Conn.). […] Sensorgrams generated from the binding between contrast agents and EDB were recorded with Biacore T100 (GE healthcare, Waukesha, Wis.), and analyzed using Scatchard plot. Affinity was calculated by fitting data into a linear line, with the slope of the line representing −1/Kd.
On the technique in general: SPR reads the build-up and loss of mass on a sensor chip optically.

Assay [2] has as its target T1, EDB fragment (extradomain B of …). In words: ELISA, HRP-conjugated peptide on EDB protein.
Assay [3] concerns the target T2, EDA (extradomain A of fibronectin) (UniProt P02751 1722-1811, limits assumed).
T2 construct: domain: EDA
In words: ELISA, HRP-conjugated peptide. For orientation: An ELISA detects its analyte on a solid surface through an enzyme-linked reagent.

The target of assay [4] is extradomain-B fibronectin (EDB-FN), human, as secreted or deposited by human cancer cells and in human tumour tissue (human) (UniProt P02751). In words: histogram of Cy5 pixel intensities of ZD2-Cy5 staining (5 µM) of a human prostate tumor section, GS=7.
Assay [5] has the same target. In words: histogram of Cy5 pixel intensities of ZD2-Cy5 staining (5 µM) of a human prostate tumor section, GS=9.
For assay [6] the target is unchanged. The experiment in a line: histogram of Cy5 pixel intensities of ZD2-Cy5 staining (5 µM) of a human prostate BPH section, tissue with low EDB-FN.
Assay [7] has as its target T1, EDB fragment (extradomain B of …). The experiment in a line: phage display, four rounds of panning on immobilised purified EDB fragment. The procedure: The Ph.D C7C library (New England Biolabs, Beverly, Mass., USA) was used for screen EDB specific nonapeptides. Candidate peptides were selected by carrying out panning procedures for 4 rounds. In each round, purified EDB fragment (100 μg/ml) was immobilized on non-treated 96-well plates (Corning Costar, Tewksbury, Mass., USA) with overnight coating at 4° C. 0.5% BSA was used to block non-specific binding (1 hr, room temperature) followed by incubating with phages for 1 hr at room temperature. Extensive washing with PBST (0.1%, 0.3%, 0.5% […], respectively, for round 1-3) was used to remove non-binding phages before eluting bound phages by 0.1M Glycine-HC (pH 2.2) and neutralizing with Tris-HCl (pH 9.1). Eluted phages are tittered and amplified with E. coli (ER2758) according to the user's manual. Amplified phages in medium were purified by ultrafiltration and PEG/NaCl precipitation. At the end of round 4, properly diluted phages were cultured on LB/IPTG/Xgal plates and DNA from 29 randomly picked blue plaques were used for sequencing with supplied primers (New England Biolabs). Peptide sequences were resulted from translating of corresponding DNA sequences.
The Ph.D C7C library (New England Biolabs, Beverly, Mass.) was used to screen for EDB-specific cyclic nonapeptides. Candidate peptides were selected by panning for four rounds. […]

Bridges are numbered along the chain shown (N, C = ends). Where no end group is shown, it is not given here. Side-chain parts run from the residue outwards. maleimide = maleimide group that reacts with the cysteine thiol to conjugate the peptide to the carrier (horseradish peroxidase); Gd(HP-DO3A) (azide, via triazole) = azido-Gd(HP-DO3A) gadolinium chelate, click-linked through a triazole; sulfo‑Cy5 = sulfo-cyanine 5 fluorescent label; HRP = horseradish peroxidase; PEG3 = NCCOCCOCCOCCC(=O)O

By Kd is commonly meant a measure of binding affinity in units of concentration. Read a high Kd as lower affinity.

T1 sequence (P02751 1266-1356): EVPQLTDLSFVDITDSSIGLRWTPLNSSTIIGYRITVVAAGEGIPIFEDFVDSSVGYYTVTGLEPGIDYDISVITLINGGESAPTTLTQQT
extradomain-B fibronectin (EDB-FN), human, as secreted or deposited by human cancer cells and in human tumour tissue (human), sequence (P02751 32-2477): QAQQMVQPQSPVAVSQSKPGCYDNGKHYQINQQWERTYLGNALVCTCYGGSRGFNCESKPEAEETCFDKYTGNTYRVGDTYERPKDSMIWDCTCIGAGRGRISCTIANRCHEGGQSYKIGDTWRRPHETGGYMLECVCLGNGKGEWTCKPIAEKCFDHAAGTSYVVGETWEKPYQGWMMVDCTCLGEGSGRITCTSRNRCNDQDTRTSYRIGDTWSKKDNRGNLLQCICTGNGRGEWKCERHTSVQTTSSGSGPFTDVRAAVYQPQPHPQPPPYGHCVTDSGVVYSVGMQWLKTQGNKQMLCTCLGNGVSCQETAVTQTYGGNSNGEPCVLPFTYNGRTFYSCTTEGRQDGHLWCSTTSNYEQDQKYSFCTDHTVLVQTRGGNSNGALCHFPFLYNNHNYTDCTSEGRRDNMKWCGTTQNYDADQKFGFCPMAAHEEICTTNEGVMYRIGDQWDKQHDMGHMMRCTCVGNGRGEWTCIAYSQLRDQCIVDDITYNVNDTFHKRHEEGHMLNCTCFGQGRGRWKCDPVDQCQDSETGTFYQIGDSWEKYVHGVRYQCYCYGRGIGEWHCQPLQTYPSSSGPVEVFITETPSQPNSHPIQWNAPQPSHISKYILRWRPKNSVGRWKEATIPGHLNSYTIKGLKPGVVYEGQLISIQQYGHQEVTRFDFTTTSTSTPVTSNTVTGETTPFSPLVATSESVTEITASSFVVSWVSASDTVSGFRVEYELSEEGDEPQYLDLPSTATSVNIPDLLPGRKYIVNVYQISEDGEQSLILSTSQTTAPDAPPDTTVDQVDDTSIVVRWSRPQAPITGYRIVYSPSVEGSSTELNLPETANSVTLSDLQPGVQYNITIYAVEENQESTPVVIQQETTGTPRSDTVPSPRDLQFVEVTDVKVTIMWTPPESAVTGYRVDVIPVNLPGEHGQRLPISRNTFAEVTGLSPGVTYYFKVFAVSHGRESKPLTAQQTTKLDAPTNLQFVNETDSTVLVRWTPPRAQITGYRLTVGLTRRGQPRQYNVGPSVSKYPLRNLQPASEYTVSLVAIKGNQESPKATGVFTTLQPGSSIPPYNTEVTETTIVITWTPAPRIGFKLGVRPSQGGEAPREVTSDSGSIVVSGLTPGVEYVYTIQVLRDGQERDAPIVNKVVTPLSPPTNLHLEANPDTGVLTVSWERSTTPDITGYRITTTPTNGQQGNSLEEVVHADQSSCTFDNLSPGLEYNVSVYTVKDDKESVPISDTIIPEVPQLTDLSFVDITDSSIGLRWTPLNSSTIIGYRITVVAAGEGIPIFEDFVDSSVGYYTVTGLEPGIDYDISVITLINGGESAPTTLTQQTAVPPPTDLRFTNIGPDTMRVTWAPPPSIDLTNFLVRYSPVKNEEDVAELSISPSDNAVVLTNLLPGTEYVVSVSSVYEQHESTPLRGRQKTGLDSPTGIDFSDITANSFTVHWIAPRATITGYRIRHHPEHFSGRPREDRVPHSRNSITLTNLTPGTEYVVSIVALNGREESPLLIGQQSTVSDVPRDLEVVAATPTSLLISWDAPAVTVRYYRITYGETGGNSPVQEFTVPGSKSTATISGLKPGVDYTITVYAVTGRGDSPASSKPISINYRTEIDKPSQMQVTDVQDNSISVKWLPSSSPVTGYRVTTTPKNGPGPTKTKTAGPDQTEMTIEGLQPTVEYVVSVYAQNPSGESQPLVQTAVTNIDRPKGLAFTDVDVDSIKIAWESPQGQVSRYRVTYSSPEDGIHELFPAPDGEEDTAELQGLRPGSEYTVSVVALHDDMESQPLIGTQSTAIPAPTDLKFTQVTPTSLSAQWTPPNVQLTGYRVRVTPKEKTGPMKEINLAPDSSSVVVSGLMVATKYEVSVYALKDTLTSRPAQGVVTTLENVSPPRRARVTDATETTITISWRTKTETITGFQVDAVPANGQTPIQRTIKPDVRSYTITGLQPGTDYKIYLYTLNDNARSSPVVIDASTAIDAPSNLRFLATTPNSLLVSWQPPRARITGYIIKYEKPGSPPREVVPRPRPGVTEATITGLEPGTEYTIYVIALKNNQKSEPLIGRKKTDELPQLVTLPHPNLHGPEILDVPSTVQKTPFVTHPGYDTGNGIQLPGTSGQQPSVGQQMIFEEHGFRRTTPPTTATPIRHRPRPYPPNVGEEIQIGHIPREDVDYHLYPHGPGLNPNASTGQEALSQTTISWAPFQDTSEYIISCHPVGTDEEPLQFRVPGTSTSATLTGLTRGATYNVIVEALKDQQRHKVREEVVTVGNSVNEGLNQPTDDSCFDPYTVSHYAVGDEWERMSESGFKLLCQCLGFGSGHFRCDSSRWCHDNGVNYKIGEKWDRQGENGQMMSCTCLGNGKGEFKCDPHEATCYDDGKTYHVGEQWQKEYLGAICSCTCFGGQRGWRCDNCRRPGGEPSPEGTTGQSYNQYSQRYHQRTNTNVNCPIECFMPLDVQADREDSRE
T2 sequence (P02751 1722-1811 limits assumed): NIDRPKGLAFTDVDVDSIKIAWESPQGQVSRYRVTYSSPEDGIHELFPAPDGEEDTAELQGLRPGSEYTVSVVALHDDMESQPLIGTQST

B1: ZD2-Gd(HP-DO3A) (linear ZD2 peptide TVRTSAD joined through PEG and a triazole to Gd(HP-DO3A)) (peptide)
peptide: {Gd(HP-DO3A) (azide, via triazole)-5‑hexynoic acid-9‑amino‑4,7‑dioxanonanoic acid}-TVRTSAD
modifications: also: Gd complex
notes: also called ZD2-Gd(DO3A)
Take B1: the Kd in assay [1] came out at 1700 nM.

B2: CERAK-HRP (peptide)
peptide: CERAK
modifications: also: conjugated to HRP, 'similarly' to l-ZD2-HRP
notes: Control peptide
Consider B2, for which, in assay [2], the binding result was “no binding”.

B3: l-ZD2-HRP (linear ZD2 with C-terminal cysteine, NH2-TVRTSADC-COOH, conjugated to horseradish peroxidase) (peptide)
peptide: H-TVRTSADC([maleimide-HRP])-OH
In the case of B3, the binding result in assay [3] is listed as “no binding”.

B4: ZD2-Cy5 (cyclic ZD2 peptide … labelled with Cy5 through a short PEG linker) (peptide)
peptide: {sulfo‑Cy5-PEG3}-CTVRTSADC-OH
modifications: disulfide 1-9
In the case of B4, the percent pixel counts of Cy5 pixel value 50 to 255 in assay [4] worked out at 40%; in assay [5] it was 72.2%; in assay [6], 2.1%.

B5: cyclic ZD2 peptide (CTVRTSADC) as selected by phage display (peptide)
peptide: CTVRTSADC
modifications: disulfide 1-9 (inferred); not fully specified
notes: also called cyclic nonapeptide ZD2
As to B5, the binding result in assay [7] was “binds”.
